In paper PMC6915754, “Protein components of ribonucleoprotein granules from Drosophila germ cells oligomerize and show distinct spatial organization during germline development” (Scientific Reports, 2019):

T1: GFP-Aub (functional and methylated, from fly ovaries) (Drosophila, UniProt O76922 1-866, methylated (sDMAs), positions not given)
T1 construct: Aubergine (Aub), Piwi family protein, Drosophila; full-length; also called full-length Aub; source: purified from fly ovaries with anti-GFP beads
T1 sequence (looked up): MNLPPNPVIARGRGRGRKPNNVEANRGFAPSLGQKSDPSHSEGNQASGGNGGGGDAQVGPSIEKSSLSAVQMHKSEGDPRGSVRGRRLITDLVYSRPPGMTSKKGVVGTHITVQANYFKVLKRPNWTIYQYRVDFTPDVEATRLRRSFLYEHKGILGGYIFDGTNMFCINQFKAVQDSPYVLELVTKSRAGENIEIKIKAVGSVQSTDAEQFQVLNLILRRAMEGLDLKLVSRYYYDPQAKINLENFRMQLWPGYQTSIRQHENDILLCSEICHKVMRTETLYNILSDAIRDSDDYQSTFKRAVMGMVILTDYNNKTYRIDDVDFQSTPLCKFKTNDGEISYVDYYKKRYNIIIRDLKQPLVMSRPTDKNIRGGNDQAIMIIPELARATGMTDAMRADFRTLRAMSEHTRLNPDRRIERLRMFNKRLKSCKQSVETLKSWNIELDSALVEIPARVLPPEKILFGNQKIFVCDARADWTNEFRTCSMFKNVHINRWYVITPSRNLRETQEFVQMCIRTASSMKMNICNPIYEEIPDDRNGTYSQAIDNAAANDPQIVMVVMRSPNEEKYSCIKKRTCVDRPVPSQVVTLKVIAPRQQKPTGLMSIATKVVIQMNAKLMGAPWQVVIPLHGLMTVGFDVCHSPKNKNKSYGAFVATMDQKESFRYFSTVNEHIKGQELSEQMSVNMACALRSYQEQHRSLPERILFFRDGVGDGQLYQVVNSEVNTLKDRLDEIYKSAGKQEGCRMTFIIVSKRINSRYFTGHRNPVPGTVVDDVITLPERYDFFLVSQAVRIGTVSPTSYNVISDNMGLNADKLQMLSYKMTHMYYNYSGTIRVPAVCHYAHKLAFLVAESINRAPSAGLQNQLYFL


Biological target: T1, GFP-Aub (functional and methylated, …)
Test: pull-down; GFP-Aub from fly ovaries held on anti-GFP agarose beads; partially purified His-SUMO Tud domains added; 50 µl reactions, 4 °C, 30 min, binding buffer PBS + 0.05% IGEPAL CA-630; 4 washes; bound domains detected by anti-His-tag western blot
Details: both partners purified

| Binder | binding result |
| --- | --- |
| Tud domain 1 (amino acids 1-217 of Tudor) (domain or fragment, Drosophila, UniProt P25823 1-217, looked up, Tudor (Tud) protein, Drosophila, full length 2515 amino acids; Tud domain 1, amino acids 1-217; pET SUMO vector; source: E. coli BL21 (DE3), partially purified (Ni-NTA); not shown: His, N-terminal, kept) MNGQARIALPSKVDLYITHVDHVGPYLKVYGHVNRDAASLISERIRNLLPTCFAIEPSWSVERQQALLIPGTFCIFKNINGPAPGDVEYRRIRVVSADLEGQSMRAEIDFVDFGYKRTVDSHDLMFPKQPKLLQNIPLHCFQYIVLGICSEWDQTDLAEVRRLVVNQIVKITVEPTQICDQKFASLRWKDFELNEFLVQQKQIGVSVDKQLMMDHCK | binds |
| Tud domain 3 (amino acids 592-772 of Tudor) (domain or fragment, Drosophila, UniProt P25823 592-772, looked up, Tudor (Tud) protein, Drosophila, full length 2515 amino acids; Tud domain 3, amino acids 592-772; pET SUMO vector; source: E. coli BL21 (DE3), partially purified (Ni-NTA); not shown: His, N-terminal, kept) QLENDDAVEIRFIDSPSNFYVQKVANIGKFEQLMDEMFSYYNANQRVPDQLILGAPCIVKCDQEWYRAEILRVDDSVIVRHVDFGYEQNVKRHLIGHIAEKHLEMPRQAIKCCLKGFENSELSEDKITDQFEMLAEESNIRRRTFSVRIFRIEPDGLNVVNLLAKNLNVMKKLYKLSMPFE | binds |
| Tud domain 9 (amino acids 1976-2160 of Tudor) (domain or fragment, Drosophila, UniProt P25823 1976-2160, looked up, Tudor (Tud) protein, Drosophila, full length 2515 amino acids; Tud domain 9, amino acids 1976-2160; pET SUMO vector; source: E. coli BL21 (DE3), partially purified (Ni-NTA); not shown: His, N-terminal, kept) SLAVTTKAIITHVENTSRIYLQFSEKDSLMDIICEKLNGSKLQPKTEKAAVDDMCVVQFADDLEFYRSRILEVLEDDQYKVILIDYGNTTVVDKLYELPQEFTLIKPVAEICSMEPSAIFEKNKALTLTTFDALLDSCKGVVAVEFVNKSASPPVVRLTTKDKRSLKIYEHLQKLVQAELKLIQK | binds |
| Tud domain 4 (amino acids 1002-1192 of Tudor) (domain or fragment, Drosophila, UniProt P25823 1002-1192, looked up, Tudor (Tud) protein, Drosophila, full length 2515 amino acids; Tud domain 4, amino acids 1002-1192; pET SUMO vector; source: E. coli BL21 (DE3), partially purified (Ni-NTA); not shown: His, N-terminal, kept) SLDKPYALQEMKTPSKEAASLSWWLSPFQFYIVPKSVSAKYDNIMRDMREFYRQKQHQPLQLKVGSTVVVRQRKDNAILRATVTACNHMMRKYRVFCVDTGSLITVTSEDIWQLEQRFADPPCMAHRCSFHSVVTNYDPLYIVDRMETFVPVNAKVDCEFVSKEKSNQGSNTSSTCSYTVNIFVNGASLRD | binds |
| Tud domain 6 (amino acids 1299-1484 of Tudor) (domain or fragment, Drosophila, UniProt P25823 1299-1484, looked up, Tudor (Tud) protein, Drosophila, full length 2515 amino acids; Tud domain 6, amino acids 1299-1484; pET SUMO vector; source: E. coli BL21 (DE3), partially purified (Ni-NTA); not shown: His, N-terminal, kept) SFICPYPVVLSSFQALVVYTAKPYRVYVQPQAIVPSMQTLLDNMYEHYKAKGDSLKKFDVGQICAVRSSDGNWYRARISGKDSNAACFEVFYIDYGNTEEIKRDDIKALDAKFYEHASGFAVEINLPIGRPSNDTKLKARISEILEEKVVTIKSIEVRRSHLIADVILENNQSVIDLLKAEKLVPG | binds |
| Tud domain 11 (amino acids 2335-2515 of Tudor) (domain or fragment, Drosophila, UniProt P25823 2335-2515, looked up, Tudor (Tud) protein, Drosophila, full length 2515 amino acids; Tud domain 11, amino acids 2335-2515; pET SUMO vector; source: E. coli BL21 (DE3), partially purified (Ni-NTA); not shown: His, N-terminal, kept) STVTGVQKPLEAELHNCVVVQFDGPMSFYVQMESDVPALEQMTDKLLDAEQDLPAFSDLKEGALCVAQFPEDEVFYRAQIRKVLDDGKCEVHFIDFGNNAVTQQFRQLPEELAKPARYSRHCELDASTISKCDAALLQSFIDTRFSETFQVEILATKGTGTHVVRLFYQSKNISEKLQECQ | binds |

Biological target: the molecule itself
Test: native gel or EMSA; blue native PAGE (BN-PAGE), NativePAGE 3-12% Bis-Tris gels, of Aub purified by anti-c-Myc immunoaffinity, several concentrations; western blot with anti-Flag antibody
Details: not given

| Binder | binding result |
| --- | --- |
| methylated Aubergine (sDMA-Aub) (natural protein, Drosophila, UniProt O76922 1-866, looked up, symmetrically dimethylated arginines (sDMAs), positions not given, Aubergine (Aub), Piwi family protein, Drosophila; full-length; monomer ~100 kDa; Oligomers migrate at 500-700 kDa; also called sDMA-containing Aub; source: Sf9 or TriEx Sf9 cells, baculovirus, co-expressed with Dart5(Csul) and Vls; for SEC also Ni-NTA); not shown: 3xFLAG, N-terminal, kept) MNLPPNPVIARGRGRGRKPNNVEANRGFAPSLGQKSDPSHSEGNQASGGNGGGGDAQVGPSIEKSSLSAVQMHKSEGDPRGSVRGRRLITDLVYSRPPGMTSKKGVVGTHITVQANYFKVLKRPNWTIYQYRVDFTPDVEATRLRRSFLYEHKGILGGYIFDGTNMFCINQFKAVQDSPYVLELVTKSRAGENIEIKIKAVGSVQSTDAEQFQVLNLILRRAMEGLDLKLVSRYYYDPQAKINLENFRMQLWPGYQTSIRQHENDILLCSEICHKVMRTETLYNILSDAIRDSDDYQSTFKRAVMGMVILTDYNNKTYRIDDVDFQSTPLCKFKTNDGEISYVDYYKKRYNIIIRDLKQPLVMSRPTDKNIRGGNDQAIMIIPELARATGMTDAMRADFRTLRAMSEHTRLNPDRRIERLRMFNKRLKSCKQSVETLKSWNIELDSALVEIPARVLPPEKILFGNQKIFVCDARADWTNEFRTCSMFKNVHINRWYVITPSRNLRETQEFVQMCIRTASSMKMNICNPIYEEIPDDRNGTYSQAIDNAAANDPQIVMVVMRSPNEEKYSCIKKRTCVDRPVPSQVVTLKVIAPRQQKPTGLMSIATKVVIQMNAKLMGAPWQVVIPLHGLMTVGFDVCHSPKNKNKSYGAFVATMDQKESFRYFSTVNEHIKGQELSEQMSVNMACALRSYQEQHRSLPERILFFRDGVGDGQLYQVVNSEVNTLKDRLDEIYKSAGKQEGCRMTFIIVSKRINSRYFTGHRNPVPGTVVDDVITLPERYDFFLVSQAVRIGTVSPTSYNVISDNMGLNADKLQMLSYKMTHMYYNYSGTIRVPAVCHYAHKLAFLVAESINRAPSAGLQNQLYFL | binds |
| unmethylated Aubergine (natural protein, Drosophila, UniProt O76922 1-866, looked up, Aubergine (Aub), Piwi family protein, Drosophila; full-length; without sDMAs; source: Sf9 cells lacking dart5/vls bacmid, baculovirus; not shown: 3xFLAG, N-terminal, kept) MNLPPNPVIARGRGRGRKPNNVEANRGFAPSLGQKSDPSHSEGNQASGGNGGGGDAQVGPSIEKSSLSAVQMHKSEGDPRGSVRGRRLITDLVYSRPPGMTSKKGVVGTHITVQANYFKVLKRPNWTIYQYRVDFTPDVEATRLRRSFLYEHKGILGGYIFDGTNMFCINQFKAVQDSPYVLELVTKSRAGENIEIKIKAVGSVQSTDAEQFQVLNLILRRAMEGLDLKLVSRYYYDPQAKINLENFRMQLWPGYQTSIRQHENDILLCSEICHKVMRTETLYNILSDAIRDSDDYQSTFKRAVMGMVILTDYNNKTYRIDDVDFQSTPLCKFKTNDGEISYVDYYKKRYNIIIRDLKQPLVMSRPTDKNIRGGNDQAIMIIPELARATGMTDAMRADFRTLRAMSEHTRLNPDRRIERLRMFNKRLKSCKQSVETLKSWNIELDSALVEIPARVLPPEKILFGNQKIFVCDARADWTNEFRTCSMFKNVHINRWYVITPSRNLRETQEFVQMCIRTASSMKMNICNPIYEEIPDDRNGTYSQAIDNAAANDPQIVMVVMRSPNEEKYSCIKKRTCVDRPVPSQVVTLKVIAPRQQKPTGLMSIATKVVIQMNAKLMGAPWQVVIPLHGLMTVGFDVCHSPKNKNKSYGAFVATMDQKESFRYFSTVNEHIKGQELSEQMSVNMACALRSYQEQHRSLPERILFFRDGVGDGQLYQVVNSEVNTLKDRLDEIYKSAGKQEGCRMTFIIVSKRINSRYFTGHRNPVPGTVVDDVITLPERYDFFLVSQAVRIGTVSPTSYNVISDNMGLNADKLQMLSYKMTHMYYNYSGTIRVPAVCHYAHKLAFLVAESINRAPSAGLQNQLYFL | binds |
